In patent US20240343818A1, “Antibodies Having Humanized Framework Regions” (priority 2021, published 2024):
Substitutions are numbered along the chain they refer to.

B1: VH4/VL4 antibody (antibody, V domains shown)
VH: QVQLVQSGAEVKKPGASVKVSCKASGYTFTDYYITWVRQAPGQGLEWMGWIYPGSGNTKYNEKFKGRVTITVDTSASTAYMELSSLRSEDTAVYYCANYGNYWFAYWGQGTLVTVSS
VL: DIVLTQSPDSLAVSLGERATINCKASQSVDFDGDSYMNWYQQKPGQPPKLLIYAASNRESGVPDRFSGSGSGTDFTLTISSLQAEDVAVYYCQQSNEDPWTFGGGTKVEIK
B2: H4/L2 (conjugate)
VH: B1 VH
VL: B1 VL with L4M, D9A, N22S, A25S, M37L, N57T, D64A, A84E, V89T
B3: H1/L4 (conjugate)
VH: QVQLQQSGPEVVKPGASVKVSCKASGYTFTDYYMTWVRQKPGQGLEWMGWIYPGSGNTKYNQKFKGRVTITVDTSSSTAFMELSSLTSEDTAVYFCANYGNYWFAYWGQGTQVTVSA
VL: B1 VL
B4: H4/L4 (conjugate)
VH: B1 VH
VL: B1 VL

Assays:
Karpas 299 xenograft = Karpas 299 xenograft with CD30 ADCs; format: in vivo, mice
Procedure: (§1) Female CB17/SCID mice were used (6 mice/group) for the study. Animals were inoculated subcutaneously in the flank with 5 million cells in PBS. When tumors reached an average volume of 214 mm^3, animals were treated with vehicle alone, with unconjugated antibody (3 mg/kg), or with an ADC at 1.5 or 3 mg/kg. The animals were monitored twice weekly for body weight and tumor size. Animals were euthanized when tumors reached 2000 mm^3. ADCs were highly efficacious in this study.

L-82 xenograft = L-82 xenograft with CD30 ADCs; format: in vivo, mice
Procedure: as §1, with “Female NOD/SCID” for “Female CB17/SCID”, “used (8” for “used (6”, “with 10” for “with 5”, “in 50% PBS/50% Matrigel.” for “in PBS.”, “of 100” for “of 214”, “mm^3, all animals were treated (Day 0) with a single 10 mg/kg intravenous dose of human IgG. Then, on Day 1,” for “mm^3,”

[1] = Melting temperature by differential scanning fluorimetry; format: physicochemical
[2] = Forced stability of ADCs, high-molecular weight species by size-exclusion chromatography; format: physicochemical; details: for HWM pH 5.5, 3 d 45° C.: pH 5.5, 3 d at 45° C.; for HWM pH 5.5, 3 d −80° C.: pH 5.5, 3 d at −80° C.; for HWM pH 7.2, 3 d 45° C.: pH 7.2, 3 d at 45° C.; for HWM pH 7.2, 3 d −80° C.: pH 7.2, 3 d at −80° C.
From the text: ADCs were conjugated at the antibody heavy chain C-terminus to a noncleavable linker bearing a maytansine payload for a DAR of ˜1.9. Samples were placed in buffer at the designated pH and temperature for 3 days, then analyzed by size-exclusion chromatography. HMW, high-molecular weight species.

[3] = single intravenous dose, ADC 1.5 or 3 mg/kg, unconjugated antibody 3 mg/kg
[4] = ADC (heavy chain C-terminus, noncleavable maytansine linker-payload, DAR ~1.9)

Row | Molecule | complete responses (Karpas 299 xenograft; Karpas 299 xenograft, CB17/SCID mice, 6 mice/group, single intravenous dose 3 mg/kg (equal dosing)) | complete responses (L-82 xenograft; L-82 xenograft, NOD/SCID mice, single intravenous dose 3 mg/kg (equal dosing)) | efficacy in Karpas 299 xenograft (Karpas 299 xenograft; [3]) | efficacy in L-82 xenograft (L-82 xenograft; [3]) | Fab Tm [1, 4] [°C] | Fab Tm ([1]; Antibody) [°C] | HWM pH 5.5, 3 d 45° C. [2] [%] | HWM pH 5.5, 3 d −80° C. [2] [%] | HWM pH 7.2, 3 d 45° C. [2] [%] | HWM pH 7.2, 3 d −80° C. [2] [%]
1 | Adcetris: anti-CD30 ADC used as comparator in the xenograft studies [reference compound] | 6/6 | 8 out of 8 mice/group |  |  |  |  |  |  |  | 
2 | B1 |  |  | minimal activity | minimal activity |  |  |  |  |  | 
3 | B2 |  |  |  |  | 73 | 75.54 | 6.18 | 1.24 | 30.38 | 2.37
4 | B3 |  |  |  |  | 80 | 81.17 | 10.05 | 1.66 | 16.42 | 2.90
5 | B4 |  |  |  |  | 82 | 80.43 | 7.70 | 1.66 | 23.28 | 3.14
